# Assay results published in paper PMC9492806.
# pKd: −log10 of the molar value.
# Biological target: Recombinant human IGF-II R (cation-independent mannose-6-phosphate receptor, CI-MPR) (human) (UniProt P11717)
# Test: SPR
row,Substance,pKd
1,cetuximab M6P-glycoform 9 (cetuximab carrying the M6P tetrasaccharide moiety at the Fc glycosylation site) (antibody),7.15
2,cetuximab M6P-glycoform 10 (cetuximab carrying the bis-phosphorylated heptasaccharide moiety at the Fc glycosylation site) (antibody),7.53
3,trastuzumab M6P-glycoform 7 (trastuzumab carrying the bis-phosphorylated heptasaccharide moiety at the Fc glycosylation site) (antibody),8.27

# Continued, values first:
row,pKd,Substance
1,6.15,trastuzumab M6P-glycoform 6 (trastuzumab carrying the M6P-Man3GlcNAc2 glycan at the Fc glycosylation site) (antibody)
2,7.54,trastuzumab M6P-glycoform 3 (trastuzumab carrying the M6P tetrasaccharide moiety at the Fc glycosylation site) (antibody)
